# Experimental data as given in article PMC6317530.
# Substrate: O=C(O)c1cc(=O)[nH]c(=O)n1[C@@H]1O[C@H](COP(=O)(O)O)[C@@H](O)[C@H]1O
# Experiment: purified protein
# Details: pH 7.1 (10 mM MOPS), 25 °C, I = 0.105 (NaCl)
protein,measurement,value
ScOMPDC (yeast orotidine 5′-monophosphate decarboxylase) (Saccharomyces cerevisiae S288C; A160S/C155S/N267D/Q215A/S154A/S2H/Y217F) (protein) MHKATYKERAATHPSPVAAKLFNIMHEKQTNLCASLDVRTTKELLELVEALGPKICLLKTHVDILTDFSMEGTVKPLKALSAKYNFLLFEDRKFADIGNTVKLQYSAGVYRIAEWADITNAHGVVGPGIVSGLKQAAEEVTKEPRGLLMLAELASKGSLSTGEYTKGTVDIAKSDKDFVIGFIAQRDMGGRDEGYDWLIMTPGVGLDDKGDALGAQFRTVDDVVSTGSDIIIVGRGLFAKGRDAKVEGERYRKAGWEAYLRRCGQQD,Km,1500 ± 50 µM
